Measured values taken from patent publication KR20220013302A (dated 2022).

What was measured:
[1] = biological target: T1, SARS-CoV-2 바이러스 표면 단백질 (RBD) (SARS-CoV-2, UniProt P0DTC2 319-541); assay: BLI (Octet), Full IgG
[2] = biological target: T1, SARS-CoV-2 바이러스 표면 단백질 (RBD); assay: BLI (Octet), Full IgG culture supernatant

B1: No. 32 항체 (Full IgG) (antibody, V domains shown)
VH: EVQLVQSGGGLIQPGGSLRLSCAASEFIVSSNYMTWVRQAPGKGLEWVSIIYPGGSTYYADSVKGRFTISRDNSKNTLYLRMNSLRAEDTAVYYCARDLPLTGTTLDYWGQGTLVTVSS
VL: not shown
- Kd [1]: 0.305 nM
- koff [1]: 0.000193 s⁻¹
- kon [1]: 633000 M⁻¹ s⁻¹
- Kd [2]: 0.147 nM
